From paper PMC7646482

Experiments:
Experiment in all cases: SPR
[1] = biological target: Ab62-D100dG (human)
[2] = biological target: Ab77 with a T28I mutation (human)
[3] = biological target: Other beneficial substitutions in Ab77 and Ab31
[4] = biological target: Ab62-S74P (human)

B1: Recombinant dimeric HARS (aa1-506) (enzyme)
chain: MAERAALEELVKLQGERVRGLKQQKASAELIEEEVAKLLKLKAQLGPDESKQKFVLKTPKGTRDYSPRQMAVREKVFDVIIRCFKRHGAEVIDTPVFELKETLMGKYGEDSKLIYDLKDQGGELLSLRYDLTVPFARYLAMNKLTNIKRYHIAKVYRRDNPAMTRGRYREFYQCDFDIAGNFDPMIPDAECLKIMCEILSSLQIGDFLVKVNDRRILDGMFAICGVSDSKFRTICSSVDKLDKVSWEEVKNEMVGEKGLAPEVADRIGDYVQQHGGVSLVEQLLQDPKLSQNKQALEGLGDLKLLFEYLTLFGIDDKISFDLSLARGLDYYTGVIYEAVLLQTPAQAGEEPLGVGSVAAGGRYDGLVGMFDPKGRKVPCVGLSIGVERIFSIVEQRLEALEEKIRTTETQVLVASAQKKLLEERLKLVSELWDAGIKAELLYKKNPKLLNQLQYCEEAGIPLVAIIGEQELKDGVIKLRSVTSREEVDVRREDLVEEIKRRTGQPL
- fold improvement of affinity over the parent Ab62 [1]: 3 fold
- fold improvement of affinity over the parent Ab77 [2]: 3 fold
- fold improvement of affinity over the parent antibody [3]: < 2 fold
- fold improvement of affinity over the parent Ab62 [4]: 3 fold
